Results as given in patent publication US20210238276A1 (INTEGRAL MOLECULAR, published 2021).
Substitutions are numbered along the chain they refer to.

T1: hsGLUT4 L260A (human, UniProt P14672 1-509)
T1 sequence: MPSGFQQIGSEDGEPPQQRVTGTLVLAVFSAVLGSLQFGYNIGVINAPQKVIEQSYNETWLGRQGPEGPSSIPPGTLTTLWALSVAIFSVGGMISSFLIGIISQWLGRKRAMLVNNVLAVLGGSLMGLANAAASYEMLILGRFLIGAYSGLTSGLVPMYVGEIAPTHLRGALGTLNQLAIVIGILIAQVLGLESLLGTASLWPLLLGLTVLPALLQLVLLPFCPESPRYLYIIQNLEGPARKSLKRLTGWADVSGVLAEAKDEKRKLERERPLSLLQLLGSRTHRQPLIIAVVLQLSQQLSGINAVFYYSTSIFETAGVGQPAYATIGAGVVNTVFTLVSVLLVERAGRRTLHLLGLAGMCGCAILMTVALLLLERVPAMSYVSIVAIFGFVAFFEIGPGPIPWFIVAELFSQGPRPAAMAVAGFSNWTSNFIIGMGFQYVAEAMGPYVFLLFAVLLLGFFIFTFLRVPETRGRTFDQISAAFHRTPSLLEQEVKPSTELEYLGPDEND

T2: hsGLUT4 L247A (human, UniProt P14672 1-509)
T2 sequence: T1 sequence with L247A, A260L

T3: hsGLUT4 E315A (human, UniProt P14672 1-509)
T3 sequence: T1 sequence with A260L, E315A

T4: human GLUT4 (hsGLUT4), wild type (UniProt P14672 1-509)
T4 chain: T1 sequence with A260L

B1: AB108 (Fc fusion)
scFv: ALTQPSSVSANLGGTVKITCSGSSGSYGWYQQKAPGSAPVTLIYRNDKRPSDIPSRFSGSESGSTGTLTITGVQAEDEAVYFCGGYDSSAGYAAFGAGTTLTVLGQSSRSSGGGGSSGGGGSAVTLDESGGGLQTPGGALSLVCKASGFTFSSHGMGWVRQAPGKGLEWVGSISTGRYTFYAPAVKGRATISRDNGQSTLRLQLNNLRAEDTGTYYCTKCAGLNGCGGGEIDAWGHGTEVIVSS
notes: Bivalent scFv-Fc; also called MAb AB108; not shown: Fc fragment of human IgG1, cloned in frame with the scFv
B2: AB101 (scFv)
scFv: ALTQPSSVSANPGETVKITCSGSSNSYGWYQQKSPGSAPVTVIYYNDKRPSDIPSRFSGSKSDSTHTLTITGVRAEDEAVYFCGSYDSTYVGIFGAGTTLTVLGQSSRSSGGGGSSGGGGSAVTLDESGGGLQTPGGTLSLVCKASGFTFSSNAMGWVRQAPGKGLEWVAGISSDGRYTKYGSAVKGRATISRDNGQSTVRLQLNNLRAEDTGTYFCAKAFGNNYRRIYAGQIDAWGHGTEVIVSS
notes: Chicken-derived clone used as a control; the four lead clones were tested as scFv-human IgG1 Fc; also called MAb AB101
B3: AB111 (Fc fusion)
scFv: ALTQPSSVSANPGETVKITCSGSGSWYGWFQQKSPGSAPVTVIYSNDKRPSDIPSRFSGSKSGSTSTLTITGVQVEDEAVYYCGNWDIFGAGTTLTVLGQSSRSSGGGGSSGGGGSAVTLDESGGGLQTPGGALSLVCKASGFTFSSHGMGWVRQAPGKGLEWVASISTGRYTFYAPAVKGRATISRDNGQSTVRLQLNNLRAEDTATYYCTKCAGLNGCGGGEIDAWGHGTEVIVSS
notes: Bivalent scFv-Fc; also called MAb AB111; not shown: Fc fragment of human IgG1, cloned in frame with the scFv

Assays:
hsGLUT4 L260A = biological target: T1, hsGLUT4 L260A; test: flow cytometry, alanine-scan library in HEK-293T
Method in brief: (§1)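 HEK-293T cells expressing individual GLUT4 alanine mutants were stained 48 h post-transfection with anti-GLUT4 scFv MAbs (2 μg/ml), then biotinylated secondary and streptavidin-PerCP, and read by high-throughput flow cytometry. Where used, cytochalasin B (10 uM final) was given for 30 min before and during primary antibody staining.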

hsGLUT4 L247A = biological target: T2, hsGLUT4 L247A; test: flow cytometry, alanine-scan library in HEK-293T
Method in brief: as §1

hsGLUT4 E315A = biological target: T3, hsGLUT4 E315A; test: flow cytometry, alanine-scan library in HEK-293T
Method in brief: as §1

[1] = biological target: T4, human GLUT4 (hsGLUT4), wild type; test: BLI; avid

Row | Molecule | % of binding to wild type GLUT4 (hsGLUT4 L260A) | % of binding to wild type GLUT4 (hsGLUT4 L247A) | % of binding to wild type GLUT4 (hsGLUT4 E315A) | Kd [1]
1 | 1F8 (antibody) | 98% | 95% | 93% | 
2 | B1 | 108% | 110% | 96% | 1.8 nM
3 | B2 | 112% | 111% | 130% | 
4 | B3 | 130% | 99% | 164% | 0.56 nM
